System: MS2 coat protein
Assay: apparent KD of MS2 coat protein; designed switch direction (-1 OFF switch, 1 ON switch): -1; higher = weaker reporter binding
Summary of the method: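 Designed RNA switches with common flanks were made on Illumina chips by stalled E. coli RNA polymerase. Titration with SNAP-549-labelled MS2 coat protein doubled from 0.7 or 1.5 nM up to 3 µM. Apparent KD is each design's median over clusters after curve-fitting normalised fluorescence.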

[1] = Eterna round: R95, input ligand: FMN 200 uM
[2] = Eterna round: R95, input ligand: microRNA oligo, concentration not stated
[3] = Eterna round: R95, input ligand: none
[4] = input ligand: microRNA oligo, concentration not stated

| Sequence | apparent KD of MS2 coat protein [1] [µM] | apparent KD of MS2 coat protein [2] [µM] | apparent KD of MS2 coat protein [3] [µM] | apparent KD of MS2 coat protein (input ligand: FMN 200 uM) [µM] | apparent KD of MS2 coat protein (input ligand: none) [µM] | apparent KD of MS2 coat protein [4] [µM] |
| --- | --- | --- | --- | --- | --- | --- |
| GUAAUUAUAUAGGAUAUCGAACUUAUAAUUUAACGAGAAGGAUGAACAUGAGGAUCACCCAUGUGGUAUCAUGG [JL-ex6-3.07] (puzzle: Exclusion 6) | 0.131 | 0.207 | 0.284 |  |  |  |
| GUGAAACAUGAGGAUCACCCAUGUCAGGAUAUGAUACUAUGUACUUCGGUACAUAGUAUCAGAAGGGACAGUGA [Ex1-3: 3] (puzzle: Exclusion 1) |  | 0.0744 |  |  |  |  |
| CCCGAGUUAGGAUAUAAACCAAAGUAACCAGCAGCUUAGCUUUAGAAGGAACAUGAGGAUCACCCAUGUGGUCU [Eternabot (L2) Solution 70] (Eterna round: R97, puzzle: Exclusion 4) |  |  |  | 0.119 | 0.107 |  |
| CUGUGCACGCUGCGGUCCUACAUGAGGAUCACCCAUGUGGUCUGGUGGCGUGGGUCACCGGACUUGGCUCGUCUUGG [salish99_S_TOV1_R5_063] (Eterna round: R97, puzzle: Sensor, turn-off variant 1) |  |  |  | 0.022 | 0.023 |  |
| GAAUAGAGAGGAUAUGCAAUGAAGGUAGUACGAUAUGUCUGACAUGAGGAUCACCCAUGUAGAAGGCUCAGAUC [EX2 #9] (Eterna round: R97, puzzle: Exclusion 2) |  |  |  | 0.0638 | 0.0298 |  |
| UGUUGUUCAGGAUAUGAAGUAUAUUACAUGAGGAUCACCCAUGUAGAUCCUGAAUAUACAUCAGAAGGGAAUAUUU [JR_Ex5_Sub057] (Eterna round: R97, puzzle: Exclusion 5) |  |  |  | 0.051 | 0.0211 |  |
| GCAGCAUAGUCGGAAUACGACAUACAUGAGGAUCACCCAUGUCAGGAUAUGGUCUGGAUUACAGGCCAGAAGGGACGAAGCUGC [Eli exng3 - 006] (Eterna round: R96, puzzle: Exclusion NG 3) |  |  |  | 0.0184 | 0.0215 | 0.0176 |
| GCCGAUUAAGUGAGGAUAUACCUAUGGAAACAUAGGUAGAAGGCACAUGAGGAUCACCCAUGUUCCUAUACGGC [Fiskers BMX 4 - 5] (puzzle: Brourd's mod of Exclusion 4) | 0.0364 | 0.0123 | 0.011 |  |  |  |
| GAGCCAUCGUGAGAUGGCUAAAUUACAUGAGGAUCACCCAUGUAGGAUAUCGAUUGCUUUGCAGUCGAGAAGGACAUGUUUAAU [JL ENG3 3.99] (Eterna round: R96, puzzle: Exclusion NG 3) |  |  |  | 0.0675 | 0.0329 | 0.0278 |
| GCACUGCGAGGAUAUACAUGAGGAUCACCCAUGUAUCGGUAGUCAAGGUUAAUUUAAGGUAGAAGGCGCGUAUU [JR_Ex3_Sub006] (Eterna round: R97, puzzle: Exclusion 3) |  |  |  | 0.0239 | 0.0227 |  |
| GCUACCAGAGUGAGGAUAUCGGAUGCGCAAGCACACGAGAAGGCACAUGAGGAUCACCCAUGUAUGGUAGCCGU [eternacac ex4r4 #9] (Eterna round: R97, puzzle: Brourd's mod of Exclusion 4) |  |  |  | 0.0132 | 0.0391 |  |
| UAUUAUCAAGCAAGAUCCCACAUGAGGAUCACCCAUGUGCUCGUCUUAUUUCUGUCCUUAUUGUUCUCUCGUCUAAU [JR_STOV1_v2_Sub096] (Eterna round: R97, puzzle: Sensor, turn-off variant 1) |  |  |  | 0.0418 | 0.0399 |  |
| AUACCAUGCCGCCUAAUAGCUUUUUGCUCGUCUUAUAAAACAUGAGGAUCACCCAUGUAAAACAUGUGGCGUGACCC [Maridi] (Eterna round: R96, puzzle: Sensor v3, turn-off variant 2) |  |  |  | 0.422 | 0.329 | 0.0529 |
| CCGGCUUAGGAGGAUAUCAGAGUCGAAAGACUCUGAGAAGGCCUAACAUGAGGAUCACCCAUGUGUCCUACCGG [Mod of Eli 7 - Jieux - Exclusion 6] (Eterna round: R97, puzzle: Exclusion 6) |  |  |  | 0.0815 | 0.0251 |  |
| UGACAGUGAGGAUAUUAUCUGAGGGACAUGAGGAUCACCCAUGUGCACUCACGGGCCCAGUAAGAAGGCACGAGCU [EX5 B.23] (Eterna round: R97, puzzle: Exclusion 5) |  |  |  | 0.0181 | 0.0188 |  |
| CAGUACUGAGGAUAUACAUGAGGAUCACCCAUGUGUUCCUGCUAGGAAACUAGCAAAAGUAGAAGGCAGUACUG [salish99_ex3_r3_098x] (puzzle: Exclusion 3) |  | 0.0285 |  |  |  |  |
| GCUCAGAUGACAGGAUAUCACGCCUGGCAGAUGGGCGACAUGAGGAUCACCCAUGUCCAGCACGAUGAGAAGGGUUAUCGGGCG [Ririorti] (Eterna round: R96, puzzle: Exclusion NG 2) |  |  |  | 0.195 | 0.0964 | 0.0942 |

| Sequence | apparent KD of MS2 coat protein [1] [µM] | apparent KD of MS2 coat protein [2] [µM] | apparent KD of MS2 coat protein [3] [µM] | apparent KD of MS2 coat protein (input ligand: FMN 200 uM) [µM] | apparent KD of MS2 coat protein (input ligand: none) [µM] | apparent KD of MS2 coat protein [4] [µM] |
| --- | --- | --- | --- | --- | --- | --- |
| UACAUGAGGAUCACCCAUGUUUUGUCGUGUAUGGUAUUUAUCUAGGAUAUCAAGUUGUUUAUUUAUGAGAAGGAGAAUAUUAAU [JMF's solution 27] (Eterna round: R96, puzzle: Exclusion NG 3) |  |  |  |  |  | 0.0288 |
| UCAUACGGUGAGGAUAUCUCCGCUAAAGUGUGUAGAGAAGGCGCUACAUGAGGAUCACCCAUGUUUAUGGGCAG [Ex-6 Malc#12] (puzzle: Exclusion 6) | 0.0529 | 0.347 | 0.443 |  |  |  |
| UACACUGCAUGAGGAUCAAACAUGAGGAUCACCCAUGUAUAGCAGGCUUUUUGUGCGUCUUAUAAUUAUGUAGUGUA [Electric Eye 18 - Jieux - Sensor, turn-off variant 1] (Eterna round: R97, puzzle: Sensor, turn-off variant 1) |  |  |  | 0.0149 | 0.0153 |  |
| CCAUGUCCGGAGGAUAUGCGCAGACUUACUGCAGCAGAAGGUUGGACUUGAGGAUCACCCAAGUGACCAUUUGU [Esrebionra] (Eterna round: R97, puzzle: Exclusion 6) |  |  |  | 0.445 | 0.036 |  |
| GGCAUGCAAGGAUAUACUUGAAGUGAUGUUCGAUAAAGUCUACUUGAGGAUCACCCAAGUAGAAGGUGCAUGCC [Exclusion 2 (Mod5.1 JL EX2 4.74 Vienna UCT mod of Mamaed)] (Eterna round: R97, puzzle: Exclusion 2) |  |  |  | 0.108 | 0.198 |  |
| UAUUGGCUAGGAUAUCCGGCUGGCGACAUGAGGAUCACCCAUGUGGACUCUGGUUGUCUUGGAGAAGGAGCAUGCG [EX5 B.19] (Eterna round: R97, puzzle: Exclusion 5) |  |  |  | 0.206 | 0.138 |  |
| AUAAAUCAUGUAGGAUAUGCGUGGCAAAGCUAUGCAGAAGGACAUGAGGAUCACCCAUGUGCUUCCGUCUGAGAACAGACGGUA [Mat - Exclusion NG 1 - Mod of JL - D24] (Eterna round: R96, puzzle: Exclusion NG 1) |  |  |  | 0.13 | 0.0823 | 0.0616 |
| CAUGAUCUUCGGAUCAUGUACAUGAGGAUCACCCAUGUGACGAGUAGAUCCUCAAACAAGCUUUUUGCUCGUCUUAU [Sensor v3 - Turn-off variant 1 - 19] (puzzle: Sensor v3, turn-off variant 1) | 0.0507 | 0.0121 | 0.0645 |  |  |  |
| UUAUUUAGUGUGAGGAUAUGCUGGUCCAUAGAUCAGCAGAAGGCACAUGAGGAUCACCCAUGUAAUAUAUUAAU [Mat - Exclusion 4 - JL Mod - D32] (puzzle: Brourd's mod of Exclusion 4) |  | 0.0252 |  |  |  |  |
| UACAUGAGGAUCACCCAUGUUUUGUCGUGUAUGGUAUUUAUCUAGGAUAUCAAUCUAUUUAUUUAUGAGAAGGAGAAUAUUAAU [JMF's solution 13] (Eterna round: R96, puzzle: Exclusion NG 3) |  |  |  | 0.0396 | 0.0423 | 0.0257 |
| CCCGUGUUAGGAUAUACGGCACACCCGCCAGCGGGUAUAUAGUAGAAGGAACAUGAGGAUCACCCAUGUAUAGC [Sobiza] (puzzle: Exclusion 4) |  | 0.0156 |  |  |  |  |
| CUGCUCCGUGUAGGAUAUGCGCGCACCACCCGCGCAGAAGGACAUGAGGAUCACCCAUGUAUGUUAUUAUCACGUGUGGCGCGC [Design 38] (Eterna round: R96, puzzle: Exclusion NG 1) |  |  |  | 0.0126 | 0.0159 | 0.0111 |
| AUGUGGGUAAGAAGGUGAAGAUAGAGCGUACGUUAUGGAACAUGAGGAUCACCCAUGUAGCUUUUUGCUCGUCUUAU [JR_SV3TOV2_Sub033] (puzzle: Sensor v3, turn-off variant 2) | 0.0176 | 0.0618 | 0.0182 |  |  |  |
| GCAAGUUUUUUGUUUUUUAACAUGAGGAUCACCCAUGUAUUUUUAUAGUAUGUGUGAAUAAGAUCUCGUGGUCUUAG [JR_SV3TOV1_Sub100] (puzzle: Sensor v3, turn-off variant 1) | 0.0733 | 0.203 | 0.0772 |  |  |  |
| AGCGAAGAGACAGGAUAUGAGAAUAGAUAGAACUCAGAAGGGUCACAUGAGGAUCACCCAUGUAAAGUCUUGAGGCUGCGUGGU [Prohibition 9 - Jieux - Exclusion NG 1] (Eterna round: R96, puzzle: Exclusion NG 1) |  |  |  | 0.141 | 0.0719 | 0.0507 |
| ACGCCGCAAGGAUAUACUUGCGGUGAUGUUCGAGUUCUUCUACUUGAGGAUCACCCAAGUAGAAGGUGCGAUGG [jl-ex2.4.61 ViennaUCT mod] (Eterna round: R97, puzzle: Exclusion 2) |  |  |  | 0.0137 | 0.0138 |  |

From the supplement of paper PMC9170038
